Test [1] addresses T1, λD-Acid display phage (gpD fused to acidic aptamer [Gly-Glu]4) (bacteriophage lambda), P03712.
T1 chain: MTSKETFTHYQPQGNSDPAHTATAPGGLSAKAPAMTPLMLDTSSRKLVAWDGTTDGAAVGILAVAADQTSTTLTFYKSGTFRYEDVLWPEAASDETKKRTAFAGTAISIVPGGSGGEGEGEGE
In words: competition: free peptide titrates λD-Acid:λD-Base co-infection (MOI 0.0025), loss of double resistant multilysogens.

Test [2] concerns the target T1, λD-Acid display phage (gpD fused to …). In words: apparent KD, calculated as the concentration of free peptide that results in an IC50 in the λD-Acid:λD-Base co-infection assay.
For test [3], the target named is T2, λD-Base display phage (gpD fused to basic aptamer [Gly-Arg]4) (bacteriophage lambda), P03712.
T2 chain: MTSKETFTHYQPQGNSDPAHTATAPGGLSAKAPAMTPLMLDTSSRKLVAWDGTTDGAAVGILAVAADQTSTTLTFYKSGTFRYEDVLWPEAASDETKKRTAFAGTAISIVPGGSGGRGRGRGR
In words: competition: free peptide titrates λD-Acid:λD-Base co-infection (MOI 0.0025), loss of double resistant multilysogens.

The target in test [4] is T2, λD-Base display phage (gpD fused to …). In words: apparent KD, calculated as the concentration of free peptide that results in an IC50 in the λD-Acid:λD-Base co-infection assay.

Where no end group is shown, it is not given here.

By IC50 is commonly meant the concentration needed to halve the response being measured. Lower therefore signals higher potency.

Molecule GRGRGRGR (not fully specified) [Basic Aptamer (free synthetic peptide [Gly-Arg]4)] gave an IC50 in test [1] of 10 nM. In addition, the Kd in test [2] was 10 nM.

Turning to GEGEGEGE (not fully specified) [Acidic Aptamer (free synthetic peptide [Gly-Glu]4)], in test [3], the half-inhibitory concentration (IC50) turned out to be 10 nM. The Kd in test [4] was 10 nM.

Values taken from US20100022402A1, “Methods and Compositions for the In Vitro High-Throughput Detection of Protein/Protein Interactions” (priority 2004, published 2010).
